Data taken from patent publication US20200249231.

Tests used:
[1] = molecular target: T1, YRQTR (5-mer on peptide array)
T1 chain: YRQTR

[2] = molecular target: T2, PRYRQ (5-mer on peptide array)
T2 chain: PRYRQ

[3] = molecular target: T3, DWVAQ (5-mer on peptide array)
T3 chain: DWVAQ

[4] = molecular target: T4, EYVAQ (5-mer on peptide array)
T4 chain: EYVAQ

[5] = molecular target: T5, EYALQ (5-mer on peptide array)
T5 chain: EYALQ

[6] = molecular target: T6, RFSQR (5-mer on peptide array)
T6 chain: RFSQR

[7] = molecular target: T7, QRQRQ (5-mer on peptide array)
T7 chain: QRQRQ

[8] = molecular target: T8, WQRQR (5-mer on peptide array)
T8 chain: WQRQR

[9] = molecular target: T9, RYSQR (5-mer on peptide array)
T9 chain: RYSQR

[10] = molecular target: T10, DYWLQ (5-mer on peptide array)
T10 chain: DYWLQ

[11] = molecular target: T11, YQRQR (5-mer on peptide array)
T11 chain: YQRQR

[12] = molecular target: T12, DYALQ (5-mer on peptide array)
T12 chain: DYALQ

[13] = molecular target: T13, AYRQR (5-mer on peptide array)
T13 chain: AYRQR

[14] = molecular target: T14, LRYRQ (5-mer on peptide array)
T14 chain: LRYRQ

[15] = molecular target: T15, YKYRQ (5-mer on peptide array)
T15 chain: YKYRQ

Z-[GGGDYALQGGGG] = molecular target: T16, Z-[GGGDYALQGGGG]
T16 chain: GGGDYALQGGGG

[16] = molecular target: T17, DWYLQ (5-mer on peptide array)
T17 chain: DWYLQ

[17] = molecular target: T18, EWIAQ (5-mer on peptide array)
T18 chain: EWIAQ

[18] = molecular target: T19, WYALQ (5-mer on peptide array)
T19 chain: WYALQ

[19] = molecular target: T20, EWVAQ (5-mer on peptide array)
T20 chain: EWVAQ

[20] = molecular target: T21, YRYRQ (5-mer on peptide array)
T21 chain: YRYRQ

[21] = molecular target: T22, EYVLQ (5-mer on peptide array)
T22 chain: EYVLQ

[22] = molecular target: T23, RYTQR (5-mer on peptide array)
T23 chain: RYTQR

[23] = molecular target: T24, VRYRQ (5-mer on peptide array)
T24 chain: VRYRQ

[24] = molecular target: T25, FRQRQ (5-mer on peptide array)
T25 chain: FRQRQ

[25] = molecular target: T26, YRQRA (5-mer on peptide array)
T26 chain: YRQRA

[26] = molecular target: T27, QYRQR (5-mer on peptide array)
T27 chain: QYRQR

[27] = molecular target: T28, DWALQ (5-mer on peptide array)
T28 chain: DWALQ

[28] = molecular target: T29, EWALQ (5-mer on peptide array)
T29 chain: EWALQ

[29] = molecular target: T30, VRQRQ (5-mer on peptide array)
T30 chain: VRQRQ

[30] = molecular target: T31, RQRQR (5-mer on peptide array)
T31 chain: RQRQR

[31] = molecular target: T32, DYVAQ (5-mer on peptide array)
T32 chain: DYVAQ

[32] = molecular target: T33, QRQTR (5-mer on peptide array)
T33 chain: QRQTR

[33] = molecular target: T34, EYFLQ (5-mer on peptide array)
T34 chain: EYFLQ

[34] = molecular target: T35, YRQSR (5-mer on peptide array)
T35 chain: YRQSR

[35] = molecular target: T36, EYWLQ (5-mer on peptide array)
T36 chain: EYWLQ

[36] = molecular target: T37, FRQRG (5-mer on peptide array)
T37 chain: FRQRG

Z-[GGGYRYRQGGGG] = molecular target: T38, Z-[GGGYRYRQGGGG]
T38 chain: GGGYRYRQGGGG

[37] = molecular target: T39, RYRQR (5-mer on peptide array)
T39 chain: RYRQR

[38] = molecular target: T40, DYFLQ (5-mer on peptide array)
T40 chain: DYFLQ

B1: Streptomyces mobaraensis microbial transglutaminase (protein)
chain: DSDDRVTPPAEPLDRMPDPYRPSYGRAETVVNNYIRKWQQVYSHRDGRKQQMTEEQREWLSYGCVGVTWVNSGQYPTNRLAFASFDEDRFKNELKNGRPRSGETRAEFEGRVAKESFDEEKGFQRAREVASVMNRALENAHDESAYLDNLKKELANGNDALRNEDARSPFYSALRNTPSFKERNGGNHDPSRMKAVIYSKHFWSGQDRSSSADKRKYGDPDAFRPAPGTGLVDMSRDRNIPRSPTSPGEGFVNFDYGWFGAQTEADADKTVWTHGNHYHAPNGSLGAMHVYESKFRNWSEGYSDFDRGAYVITFIPKSWNTAPDKVKQGWP
5-mer peptide array signal with MTG [1]: found in the mid-field of the signal distribution on the array performed with MTG | 5-mer peptide array signal with MTG [2]: found in the mid-field of the signal distribution on the array performed with MTG | 5-mer peptide array, incorporation of N-(biotinyl)cadaverine [3]: The 16 glutamine-donor substrates identified with MTG | 5-mer peptide array, incorporation of N-(biotinyl)cadaverine [4]: The 16 glutamine-donor substrates identified with MTG | 5-mer peptide array, incorporation of N-(biotinyl)cadaverine [5]: The 16 glutamine-donor substrates identified with MTG | 5-mer peptide array signal with MTG [6]: found in the mid-field of the signal distribution on the array performed with MTG | 5-mer peptide array signal with MTG [7]: found in the mid-field of the signal distribution on the array performed with MTG | 5-mer peptide array signal with MTG [8]: found in the mid-field of the signal distribution on the array performed with MTG | 5-mer peptide array signal with MTG [9]: found in the mid-field of the signal distribution on the array performed with MTG | 5-mer peptide array, incorporation of N-(biotinyl)cadaverine [10]: The 16 glutamine-donor substrates identified with MTG | 5-mer peptide array signal with MTG [11]: found in the mid-field of the signal distribution on the array performed with MTG | 5-mer peptide array, incorporation of N-(biotinyl)cadaverine [12]: The 16 glutamine-donor substrates identified with MTG | 5-mer peptide array signal with MTG [13]: found in the mid-field of the signal distribution on the array performed with MTG | 5-mer peptide array signal with MTG [14]: found in the mid-field of the signal distribution on the array performed with MTG | 5-mer peptide array signal with MTG [15]: found in the mid-field of the signal distribution on the array performed with MTG | KM (Z-[GGGDYALQGGGG]): 847 µM | Vmax (Z-[GGGDYALQGGGG]): 36.7 pmol/s | kcat (Z-[GGGDYALQGGGG]): 1.39 s⁻¹ | kcat/KM (Z-[GGGDYALQGGGG]): 1640 M⁻¹ s⁻¹ | 5-mer peptide array, incorporation of N-(biotinyl)cadaverine [16]: The 16 glutamine-donor substrates identified with MTG | 5-mer peptide array, incorporation of N-(biotinyl)cadaverine [17]: The 16 glutamine-donor substrates identified with MTG | 5-mer peptide array, incorporation of N-(biotinyl)cadaverine [18]: The 16 glutamine-donor substrates identified with MTG | 5-mer peptide array, incorporation of N-(biotinyl)cadaverine [19]: The 16 glutamine-donor substrates identified with MTG | 5-mer peptide array signal with MTG [20]: found in the mid-field of the signal distribution on the array performed with MTG | 5-mer peptide array, incorporation of N-(biotinyl)cadaverine [21]: The 16 glutamine-donor substrates identified with MTG | 5-mer peptide array signal with MTG [22]: found in the mid-field of the signal distribution on the array performed with MTG | 5-mer peptide array signal with MTG [23]: found in the mid-field of the signal distribution on the array performed with MTG | 5-mer peptide array signal with MTG [24]: found in the mid-field of the signal distribution on the array performed with MTG | 5-mer peptide array signal with MTG [25]: found in the mid-field of the signal distribution on the array performed with MTG | 5-mer peptide array signal with MTG [26]: found in the mid-field of the signal distribution on the array performed with MTG | 5-mer peptide array, incorporation of N-(biotinyl)cadaverine [27]: The 16 glutamine-donor substrates identified with MTG | 5-mer peptide array, incorporation of N-(biotinyl)cadaverine [28]: The 16 glutamine-donor substrates identified with MTG | 5-mer peptide array signal with MTG [29]: found in the mid-field of the signal distribution on the array performed with MTG | 5-mer peptide array signal with MTG [30]: found in the mid-field of the signal distribution on the array performed with MTG | 5-mer peptide array, incorporation of N-(biotinyl)cadaverine [31]: The 16 glutamine-donor substrates identified with MTG | 5-mer peptide array signal with MTG [32]: found in the mid-field of the signal distribution on the array performed with MTG | 5-mer peptide array, incorporation of N-(biotinyl)cadaverine [33]: The 16 glutamine-donor substrates identified with MTG | 5-mer peptide array signal with MTG [34]: found in the mid-field of the signal distribution on the array performed with MTG | 5-mer peptide array, incorporation of N-(biotinyl)cadaverine [35]: The 16 glutamine-donor substrates identified with MTG | 5-mer peptide array signal with MTG [36]: found in the mid-field of the signal distribution on the array performed with MTG | KM (Z-[GGGYRYRQGGGG]): 644 µM | Vmax (Z-[GGGYRYRQGGGG]): 21.5 pmol/s | kcat (Z-[GGGYRYRQGGGG]): 0.93 s⁻¹ | kcat/KM (Z-[GGGYRYRQGGGG]): 1440 M⁻¹ s⁻¹ | 5-mer peptide array signal with MTG [37]: found in the mid-field of the signal distribution on the array performed with MTG | 5-mer peptide array, incorporation of N-(biotinyl)cadaverine [38]: The 16 glutamine-donor substrates identified with MTG
